Results as given in US20120258119A1 (LUDWIG INSTITUTE FOR CANCER RESEARCH, published 2012).

T1: recombinant human FAP (R&D systems) (human, UniProt Q12884 26-760)
T1 construct: Bought protein amine-coupled at low density on a CM5 chip for SPR; also called rhuFAP; rFAP
T1 sequence (looked up): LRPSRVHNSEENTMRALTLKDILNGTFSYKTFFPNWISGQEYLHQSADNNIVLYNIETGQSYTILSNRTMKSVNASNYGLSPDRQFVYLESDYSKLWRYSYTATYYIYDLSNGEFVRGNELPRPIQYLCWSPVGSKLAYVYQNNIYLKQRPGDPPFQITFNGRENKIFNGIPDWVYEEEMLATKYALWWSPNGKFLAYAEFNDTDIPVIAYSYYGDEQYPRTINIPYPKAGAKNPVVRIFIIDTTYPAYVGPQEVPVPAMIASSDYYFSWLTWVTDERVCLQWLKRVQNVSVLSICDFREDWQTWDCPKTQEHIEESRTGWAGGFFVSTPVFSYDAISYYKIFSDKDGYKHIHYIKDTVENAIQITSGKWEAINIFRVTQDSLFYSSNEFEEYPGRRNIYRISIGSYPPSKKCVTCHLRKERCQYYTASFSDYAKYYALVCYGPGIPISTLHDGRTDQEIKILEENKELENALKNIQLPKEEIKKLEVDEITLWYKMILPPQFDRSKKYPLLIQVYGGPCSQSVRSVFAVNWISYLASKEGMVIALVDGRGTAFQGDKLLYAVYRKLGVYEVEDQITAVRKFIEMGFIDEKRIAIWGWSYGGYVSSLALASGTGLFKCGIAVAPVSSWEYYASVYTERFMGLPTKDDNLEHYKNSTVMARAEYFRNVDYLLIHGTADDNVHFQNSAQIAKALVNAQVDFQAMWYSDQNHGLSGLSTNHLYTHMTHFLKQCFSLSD

T2: murine FAP expressed on HEK293 cells (mouse, UniProt P97321 1-761)
T2 construct: whole, on cells; Also used as cell lysate in ELISA; also called muFAP; mouse FAP
T2 sequence (looked up): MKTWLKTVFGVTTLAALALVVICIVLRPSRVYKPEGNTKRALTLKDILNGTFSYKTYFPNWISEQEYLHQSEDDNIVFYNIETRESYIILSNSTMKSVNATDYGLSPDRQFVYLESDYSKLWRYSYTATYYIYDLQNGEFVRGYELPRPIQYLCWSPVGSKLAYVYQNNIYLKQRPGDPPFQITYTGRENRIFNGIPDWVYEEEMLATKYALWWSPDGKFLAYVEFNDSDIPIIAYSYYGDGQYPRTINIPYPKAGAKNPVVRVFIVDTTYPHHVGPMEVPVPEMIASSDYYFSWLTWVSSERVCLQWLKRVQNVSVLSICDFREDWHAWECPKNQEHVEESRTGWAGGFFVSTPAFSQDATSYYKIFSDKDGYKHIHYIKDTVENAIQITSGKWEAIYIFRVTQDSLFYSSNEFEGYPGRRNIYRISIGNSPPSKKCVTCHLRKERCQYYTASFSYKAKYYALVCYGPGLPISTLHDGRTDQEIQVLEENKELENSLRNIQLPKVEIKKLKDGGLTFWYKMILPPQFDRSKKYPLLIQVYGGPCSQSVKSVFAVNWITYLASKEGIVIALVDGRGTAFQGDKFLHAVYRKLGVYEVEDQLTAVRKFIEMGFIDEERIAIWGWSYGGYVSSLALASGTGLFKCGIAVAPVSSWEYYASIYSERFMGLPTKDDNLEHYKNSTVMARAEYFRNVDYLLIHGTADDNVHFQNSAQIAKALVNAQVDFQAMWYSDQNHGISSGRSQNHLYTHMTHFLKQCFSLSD

T3: human Fibroblast Activation Protein (FAP) expressed on cells (human, UniProt Q12884 1-760)
T3 construct: whole, on cells; also called huFAP; human FAP
T3 sequence (looked up): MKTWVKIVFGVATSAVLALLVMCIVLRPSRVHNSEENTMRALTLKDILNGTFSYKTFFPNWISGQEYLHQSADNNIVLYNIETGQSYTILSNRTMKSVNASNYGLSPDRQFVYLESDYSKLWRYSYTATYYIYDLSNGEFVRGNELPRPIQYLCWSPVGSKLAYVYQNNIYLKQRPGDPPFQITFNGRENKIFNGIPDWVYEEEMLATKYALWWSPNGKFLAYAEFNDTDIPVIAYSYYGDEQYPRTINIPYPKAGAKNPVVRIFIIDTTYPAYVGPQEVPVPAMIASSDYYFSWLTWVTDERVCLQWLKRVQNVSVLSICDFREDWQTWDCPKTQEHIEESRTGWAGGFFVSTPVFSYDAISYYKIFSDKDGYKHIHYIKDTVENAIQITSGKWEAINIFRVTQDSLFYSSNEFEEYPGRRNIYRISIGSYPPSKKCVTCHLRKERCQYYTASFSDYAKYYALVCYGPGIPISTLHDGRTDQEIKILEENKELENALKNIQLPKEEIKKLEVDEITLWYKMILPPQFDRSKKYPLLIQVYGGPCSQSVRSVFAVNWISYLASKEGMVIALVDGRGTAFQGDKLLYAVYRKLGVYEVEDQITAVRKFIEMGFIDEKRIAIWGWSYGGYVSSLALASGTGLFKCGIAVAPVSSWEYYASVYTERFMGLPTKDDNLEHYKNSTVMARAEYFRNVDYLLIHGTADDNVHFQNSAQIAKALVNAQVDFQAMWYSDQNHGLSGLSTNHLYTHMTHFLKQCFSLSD

B1: ESC14 Fab fragment (Fab, V domains shown)
VH: EVQLVQSGAEVKKPGASVKVSCKASGYTFTSYGISWVRQAPGQGLEWMGWISAYNGNTNYAQKLQGRVTMTTDTSTSTAYMELRSLRSDDTAVYYCARDWSRSGYYLPDYWGQGTLVTVSS
VL: DVVMTQSPLSLPVTLGQPASISCRSSQSLLHSNGYNYLDWYLQRPGQSPHLLIFLGSNRASGVPDRFSGSGSGTDFTLKISRVEAEDVGIYYCMQALQTPPTFGQGTKVEIK
notes: Fully human Fab from a non-immunized phage library, made in E. coli TG-1, His-tag purified and detected by its myc tag; also called Fab ESC14
B2: ESC14 IgG1 (antibody, V domains shown)
VH: EVQLVQSGAEVKKPGASVKVSCKASGYTFTSYGISWVRQAPGQGLEWMGWISAYNGNTNYAQKLQGRVTMTTDTSTSTAYMELRSLRSDDTAVYYCARDWSRSGYYLPDYWGQGTLVTVSS
VL: DVVMTQSPLSLPVTLGQPASISCRSSQSLLHSNGYNYLDWYLQRPGQSPHLLIFLGSNRASGVPDRFSGSGSGTDFTLKISRVEAEDVGIYYCMQALQTPPTFGQGTKVEIK
notes: Variable domains cloned into a full human IgG1 format and produced in NS0 cells
B3: ESC11 IgG1 (antibody, V domains shown)
VH: QVQLQESGPGLVKPSETLSLTCTVSGGSISSNNYYWGWIRQTPGKGLEWIGSIYYSGSTNYNPSLKSRVTISVDTSKNQFSLKLSSVTAADTAVYYCARGARWQARPATRIDGVAFDIWGQGTMVTVSS
VL: ETTLTQSPGTLSLSPGERATLSCRASQTVTRNYLAWYQQKPGQAPRLLMYGASNRAAGVPDRFSGSGSGTDFTLTISRLEPEDFAVYYCQQFGSPYTFGQGTKVEIK
notes: Variable domains cloned into a full human IgG1 format (modified pEE12.4 vector) and produced in NS0 cells; also called ESC11 DyLight 488
B4: ESC11 Fab fragment (Fab, V domains shown)
VH: HVQLQESGPGLVKPSETLSLTCTVSGGSISSNNYYWGWIRQTPGKGLEWIGSIYYSGSTNYNPSLKSRVTISVDTSKNQFSLKLSSVTAADTAVYYCARGARWQARPATRIDGVAFDIWGQGTMVTVSS
VL: ETTLTQSPGTLSLSPGERATLSCRASQTVTRNYLAWYQQKPGQAPRLLMYGASNRAAGVPDRFSGSGSGTDFTLTISRLEPEDFAVYYCQQFGSPYTFGQGTKVEIK
notes: Fully human Fab from a non-immunized phage library, made in E. coli TG-1, His-tag purified and detected by its myc tag; also called Fab ESC11

How the values were obtained:
[1] = molecular target: T4, human DPPIV/CD26 expressed on HEK293 cells (human, UniProt P27487 1-766); assay: ELISA, Fab at 100 nM on plates coated with cell lysate
T4 construct: whole, on cells; also called huCD26; dipeptidyl peptidase IV
T4 sequence (P27487 whole entry): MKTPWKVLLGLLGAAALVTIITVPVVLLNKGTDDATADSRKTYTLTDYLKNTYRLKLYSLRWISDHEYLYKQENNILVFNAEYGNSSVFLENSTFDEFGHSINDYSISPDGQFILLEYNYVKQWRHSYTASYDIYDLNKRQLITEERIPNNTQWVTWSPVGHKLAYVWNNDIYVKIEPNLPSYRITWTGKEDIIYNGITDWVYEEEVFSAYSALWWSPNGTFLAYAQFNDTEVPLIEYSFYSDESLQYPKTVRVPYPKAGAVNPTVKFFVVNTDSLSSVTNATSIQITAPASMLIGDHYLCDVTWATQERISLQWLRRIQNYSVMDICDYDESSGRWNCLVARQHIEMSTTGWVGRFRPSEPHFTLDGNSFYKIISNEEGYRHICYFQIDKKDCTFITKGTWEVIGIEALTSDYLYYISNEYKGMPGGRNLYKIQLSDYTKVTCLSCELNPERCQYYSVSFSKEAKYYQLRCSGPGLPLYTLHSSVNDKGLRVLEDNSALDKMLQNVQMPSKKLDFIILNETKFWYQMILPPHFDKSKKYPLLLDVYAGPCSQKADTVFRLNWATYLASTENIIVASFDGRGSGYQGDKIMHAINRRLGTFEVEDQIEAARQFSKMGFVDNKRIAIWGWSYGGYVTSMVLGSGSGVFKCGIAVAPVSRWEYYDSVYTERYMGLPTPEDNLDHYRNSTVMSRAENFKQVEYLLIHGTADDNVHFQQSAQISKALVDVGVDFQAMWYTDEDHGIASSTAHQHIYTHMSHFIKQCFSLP

[2] = molecular target: T1, recombinant human FAP (R&D systems); assay: SPR (BIAcore), Fab 6.25-200 nM injected over rhuFAP on a CM5 chip, heterogeneous ligand model [box under the right panel]
Experimental: (§1) Purified Fabs were injected at the concentrations indicated in the figure on a rhuFAP-coated CM5 sensor chip. Values were corrected for binding to the reference flow cell. The black solid lines represent the theoretical curves for each Fab concentration calculated according to the heterogeneous ligand model and the indicated rate and affinity constants.
(§2) Binding analysis of Fabs to recombinant FAP (R&D systems) was performed on a BIAcore T100 instrument. rFAP was immobilized at low density on a CM5 sensor chip using amine coupling chemistry. […] Analysis of the binding curves and determination of rate constants was done using the nonlinear data analysis program BIAevaluation.

[3] = molecular target: T1, recombinant human FAP (R&D systems); assay: SPR (BIAcore T100), Fab injected over rhuFAP on a low-density CM5 chip
Experimental: as §2

[4] = molecular target: T2, murine FAP expressed on HEK293 cells; assay: flow cytometry, serial dilutions on 293 muFAP+ cells (apparent KD)
Experimental: The cells were then washed once with PBS, fixed for 20 min with 2% PFA on ice and bound antibody was detected with PE-conjugated anti-human IgG F(ab)′₂ (Jackson Immuno Research 109-116-097). Cells were analyzed on a FACScan (BD) cytometer and data was analysed with FlowJo. The apparent Kapp was calculated by fitting a dose-response curve using the following equitation f=Bmax*abs(x)/(Kd+abs(x))+Ns*x using SigmaPlot software (Systat Software Inc.).

[5] = molecular target: T3, human Fibroblast Activation Protein …; assay: flow cytometry, serial dilutions on human FAP expressing cells (apparent KD)
[6] = molecular target: T1, recombinant human FAP (R&D systems); assay: SPR (BIAcore), Fab 0.5-16 nM injected over rhuFAP on a CM5 chip, heterogeneous ligand model [box under the left panel]
Experimental: as §1, §2

Binder | binding result [1] | koff [2] [s⁻¹] | kon [2] [M⁻¹ s⁻¹] | Kd [3] [nM] | Kd [4] [nM] | Kd [5] [nM] | koff [6] [s⁻¹] | kon [6] [M⁻¹ s⁻¹]
B1 | no binding (tested: 100 nM) | 0.125 | 560000 | 210 | 251 | – | – | –
B2 | – | – | – | – | – | 1.1 | – | –
B3 | – | – | – | – | – | 1.1 | – | –
B4 | no binding (tested: 100 nM) | – | – | 10 | 51 | – | 0.017 | 1.6e+06
